B1: AS40 (peptide)
peptide: AKCGEACDTQFNFCNAGDGCRCFITDAYLTLPGFCAQLST
B2: DS37 (peptide)
peptide: DECWGPCSVLQTPPCPLSKCYCIPLFLVVGYCSHASS
B3: EG41 (peptide)
peptide: EFCSSVGSFCSPFNTNPCGYLGNCRCVPYYLYGGTCENPFG
B4: AG41 (peptide)
peptide: ASCPNVGAVCSPFETKPCGNVKDCRCLPWGLFFGTCINPTG
B5: PA1b polypeptide of Pisum sativum (peptide)
peptide: ASCNGVCSPFEMPPCGTSACRCIPVGLVIGYCRNPSG
B6: AS37 (peptide)
peptide: ADCSGICSPFEMPPCRSSDCRCIPIALIGGFCINPIS

The term Ki denotes the equilibrium dissociation constant of an inhibitor or competing ligand from its target.

In this assay the target is PA1b-binding site. Put plainly: ligand binding assay with 125I-labeled toxin.
In the case of B1, the Ki was 10.3 nM.
The molecule B2 came in with a Ki of 694 nM.
B3 yielded a Ki of 72.8 nM.
As for B4, the Ki stood at 1.3 nM.
Turning to B5, the Ki stood at 17 nM.
The molecule B6 came in with a Ki of 15 nM.

(Values after patent US20160297857A1.)
